Test results published in US20240117038A1 (Ablynx, published 2024).

Columns and labels:
cynomolgus CX3CR1 = target: T1, cynomolgus CX3CR1 (cynomolgus monkey (Macaca fascicularis), UniProt P49238 1-355 (human entry)); test: MSD-SET in-solution affinity on cell expressed cyno CX3CR1, 30 uM HSA, geometric mean of N = 3
T1 construct: Overexpressed on CHO K1 cells; also called cyno CX3CR1; cyCX3CR1
T1 chain: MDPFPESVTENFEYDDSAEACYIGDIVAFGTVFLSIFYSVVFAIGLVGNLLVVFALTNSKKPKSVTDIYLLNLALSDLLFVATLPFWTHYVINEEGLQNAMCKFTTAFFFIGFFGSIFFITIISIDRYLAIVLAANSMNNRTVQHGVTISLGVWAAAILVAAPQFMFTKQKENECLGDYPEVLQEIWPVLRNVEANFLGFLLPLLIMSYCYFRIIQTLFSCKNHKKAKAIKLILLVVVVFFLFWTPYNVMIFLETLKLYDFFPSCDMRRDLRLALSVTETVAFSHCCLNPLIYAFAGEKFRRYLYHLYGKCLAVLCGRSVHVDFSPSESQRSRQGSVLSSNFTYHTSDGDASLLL
Description: The affinity was determined on 3 independent assay occasions.

human CX3CR1 [1] = target: T2, human CX3CR1 (human, UniProt P49238 1-355); test: cell-based or functional assay
T2 sequence: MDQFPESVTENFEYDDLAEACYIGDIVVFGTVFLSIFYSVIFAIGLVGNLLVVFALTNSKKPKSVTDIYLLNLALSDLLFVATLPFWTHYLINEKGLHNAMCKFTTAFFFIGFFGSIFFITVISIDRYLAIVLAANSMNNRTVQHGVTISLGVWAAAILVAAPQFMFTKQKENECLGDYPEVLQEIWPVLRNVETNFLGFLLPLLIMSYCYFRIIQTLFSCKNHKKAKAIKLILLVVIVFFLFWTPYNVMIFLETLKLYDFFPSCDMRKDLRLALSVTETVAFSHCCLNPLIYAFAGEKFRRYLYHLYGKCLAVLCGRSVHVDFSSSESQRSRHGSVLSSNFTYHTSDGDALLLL

DSC1 = target: T3, DSC1; test: membrane protein array validation: flow cytometry on unfixed cells expressing the protein, serial dilutions in buffer with 10% human serum albumin, fluorescently labeled secondary antibody that binds ISVDs
T3 construct: Tested in the validation titration of the membrane protein array
T3 chain: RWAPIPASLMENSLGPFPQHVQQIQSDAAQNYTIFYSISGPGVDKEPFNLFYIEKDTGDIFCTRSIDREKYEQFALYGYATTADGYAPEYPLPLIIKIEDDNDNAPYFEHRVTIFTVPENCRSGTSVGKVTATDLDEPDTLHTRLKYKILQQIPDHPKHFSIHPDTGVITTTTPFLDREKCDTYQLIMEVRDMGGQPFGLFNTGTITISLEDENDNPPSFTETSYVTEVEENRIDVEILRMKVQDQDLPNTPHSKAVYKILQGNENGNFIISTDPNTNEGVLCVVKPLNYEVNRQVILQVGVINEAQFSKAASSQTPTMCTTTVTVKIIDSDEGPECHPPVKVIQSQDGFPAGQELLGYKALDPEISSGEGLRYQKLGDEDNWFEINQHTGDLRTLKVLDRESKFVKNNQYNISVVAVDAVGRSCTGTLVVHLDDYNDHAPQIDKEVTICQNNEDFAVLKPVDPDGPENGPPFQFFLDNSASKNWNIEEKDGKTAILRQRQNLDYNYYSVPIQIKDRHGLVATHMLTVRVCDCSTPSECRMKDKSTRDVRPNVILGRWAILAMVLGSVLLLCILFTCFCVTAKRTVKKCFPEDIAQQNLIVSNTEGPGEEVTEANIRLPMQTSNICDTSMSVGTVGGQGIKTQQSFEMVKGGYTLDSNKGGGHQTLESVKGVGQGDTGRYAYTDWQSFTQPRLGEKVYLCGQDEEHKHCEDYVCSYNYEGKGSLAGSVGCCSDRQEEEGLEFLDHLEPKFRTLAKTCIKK

DCC = target: T4, DCC (human, UniProt P43146); test: as above
T4 construct: overexpressed on live cells from an expression plasmid; Tested in the validation titration of the membrane protein array
T4 sequence (P43146 26-1447 limits assumed): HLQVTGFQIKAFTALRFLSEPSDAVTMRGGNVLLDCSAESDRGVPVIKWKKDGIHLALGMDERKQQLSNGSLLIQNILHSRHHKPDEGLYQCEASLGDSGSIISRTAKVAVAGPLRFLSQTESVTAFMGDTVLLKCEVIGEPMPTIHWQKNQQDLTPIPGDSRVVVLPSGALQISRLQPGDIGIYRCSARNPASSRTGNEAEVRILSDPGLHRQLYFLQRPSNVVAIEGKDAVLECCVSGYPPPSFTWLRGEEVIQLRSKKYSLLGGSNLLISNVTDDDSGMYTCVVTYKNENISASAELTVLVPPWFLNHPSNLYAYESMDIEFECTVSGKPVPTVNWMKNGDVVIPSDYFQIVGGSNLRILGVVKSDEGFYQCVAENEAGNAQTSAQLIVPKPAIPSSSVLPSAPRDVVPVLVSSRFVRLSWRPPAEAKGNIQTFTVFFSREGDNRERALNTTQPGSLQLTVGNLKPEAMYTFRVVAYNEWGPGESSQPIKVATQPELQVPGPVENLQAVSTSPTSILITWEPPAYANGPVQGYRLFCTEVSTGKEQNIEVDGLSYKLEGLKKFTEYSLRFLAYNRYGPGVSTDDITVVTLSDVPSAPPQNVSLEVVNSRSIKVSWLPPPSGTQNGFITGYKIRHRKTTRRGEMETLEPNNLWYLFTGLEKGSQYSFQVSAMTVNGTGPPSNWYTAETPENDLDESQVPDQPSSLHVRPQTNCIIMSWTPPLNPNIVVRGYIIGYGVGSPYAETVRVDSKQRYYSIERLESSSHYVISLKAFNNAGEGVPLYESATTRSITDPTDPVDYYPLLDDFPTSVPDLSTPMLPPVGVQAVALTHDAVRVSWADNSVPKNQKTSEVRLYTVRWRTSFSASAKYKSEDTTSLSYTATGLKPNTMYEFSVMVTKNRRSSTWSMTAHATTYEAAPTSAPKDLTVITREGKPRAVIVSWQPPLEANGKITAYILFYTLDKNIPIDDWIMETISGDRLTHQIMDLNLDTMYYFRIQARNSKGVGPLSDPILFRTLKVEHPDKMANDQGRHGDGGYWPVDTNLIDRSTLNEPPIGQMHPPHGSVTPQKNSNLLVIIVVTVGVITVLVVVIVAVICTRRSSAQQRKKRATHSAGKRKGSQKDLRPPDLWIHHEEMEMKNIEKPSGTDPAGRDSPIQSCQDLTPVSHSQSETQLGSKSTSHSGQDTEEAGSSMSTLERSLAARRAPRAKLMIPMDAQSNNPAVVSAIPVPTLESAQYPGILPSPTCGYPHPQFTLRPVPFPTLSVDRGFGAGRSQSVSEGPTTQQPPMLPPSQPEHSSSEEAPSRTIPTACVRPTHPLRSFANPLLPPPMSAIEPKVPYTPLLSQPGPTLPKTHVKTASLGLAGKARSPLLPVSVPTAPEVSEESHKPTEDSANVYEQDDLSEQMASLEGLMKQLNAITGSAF

MCAM = target: T5, MCAM (human, UniProt P43121 24-646); test: as above
T5 construct: whole, on cells; also called MUC18; cell surface glycoprotein MUC18

FCGR2B = target: T6, FCGR2B (human, UniProt P31994); test: as above
T6 construct: overexpressed on live cells from an expression plasmid; Tested in the validation titration of the membrane protein array
T6 sequence (membrane protein, looked up): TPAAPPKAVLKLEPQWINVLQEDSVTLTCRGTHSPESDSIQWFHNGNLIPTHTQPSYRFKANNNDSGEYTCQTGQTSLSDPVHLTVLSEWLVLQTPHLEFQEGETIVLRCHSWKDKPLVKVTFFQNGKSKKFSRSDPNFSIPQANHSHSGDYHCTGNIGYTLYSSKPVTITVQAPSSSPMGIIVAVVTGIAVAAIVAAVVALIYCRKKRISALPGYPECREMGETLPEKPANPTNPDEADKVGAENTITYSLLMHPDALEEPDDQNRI

human CX3CR1 [2] = target: T2, human CX3CR1; test: cell-based or functional assay; remark: listed apart in the source

Kd (cynomolgus CX3CR1): 0.11 nM
arbitrary migration index (GM), classical monocytes of healthy donors, 625 pM (human CX3CR1 [1]): 1.15 fold change to media control
arbitrary migration index (GM), classical monocytes of healthy donors, 2500 pM (human CX3CR1 [1]): 1.09 fold change to media control
arbitrary migration index (GM), classical monocytes of healthy donors, 10000 pM (human CX3CR1 [1]): 1.05 fold change to media control
arbitrary migration index (GM), classical monocytes of healthy donors, 40000 pM (human CX3CR1 [1]): 1.27 fold change to media control
arbitrary migration index (GM), intermediate monocytes of healthy donors, 625 pM (human CX3CR1 [1]): 1.26 fold change to media control
arbitrary migration index (GM), intermediate monocytes of healthy donors, 2500 pM (human CX3CR1 [1]): 1.14 fold change to media control
arbitrary migration index (GM), intermediate monocytes of healthy donors, 10000 pM (human CX3CR1 [1]): 1.04 fold change to media control
arbitrary migration index (GM), intermediate monocytes of healthy donors, 40000 pM (human CX3CR1 [1]): 1.13 fold change to media control
arbitrary migration index (GM), non-classical monocytes of healthy donors, 625 pM (human CX3CR1 [1]): 1.05 fold change to media control
arbitrary migration index (GM), non-classical monocytes of healthy donors, 2500 pM (human CX3CR1 [1]): 1.08 fold change to media control
arbitrary migration index (GM), non-classical monocytes of healthy donors, 10000 pM (human CX3CR1 [1]): 0.82 fold change to media control
arbitrary migration index (GM), non-classical monocytes of healthy donors, 40000 pM (human CX3CR1 [1]): 0.91 fold change to media control
binding result (DSC1): no binding (tested: 20 ug/ml)
binding result (DCC): no binding (tested: 20 ug/ml)
binding result (MCAM): no binding (tested: 20 ug/ml)
binding result (FCGR2B): no binding (tested: 20 ug/ml)
fold inhibition of monocyte migration (A041600035 VS IRR VHH), healthy, CD16+ monocytes (human CX3CR1 [2]): 2.34 fold
fold inhibition of monocyte migration (A041600035 VS IRR VHH), healthy, CD16- monocytes (human CX3CR1 [2]): 1.5 fold
fold inhibition of monocyte migration (A041600035 VS IRR VHH), healthy, total monocytes (human CX3CR1 [2]): 1.82 fold
fold inhibition of monocyte migration (A041600035 VS IRR VHH), lupus nephritis, CD16+ monocytes (human CX3CR1 [2]): 1.9 fold
fold inhibition of monocyte migration (A041600035 VS IRR VHH), lupus nephritis, CD16- monocytes (human CX3CR1 [2]): 1.71 fold
fold inhibition of monocyte migration (A041600035 VS IRR VHH), lupus nephritis, total monocytes (human CX3CR1 [2]): 1.71 fold
B1: A041600035 (VHH)
chain: DVQLVESGGGSVQPGGSLRLSCAASGSIFSSTAMAWYRQAPGKQRDLVAVISTVGITKYADSVKGRFTISRDNAKNTVYLQMNSLRPEDTALYYCTSDARRGWDTRYWGQGTLVTVSSGGGGSGGGSEVQLVESGGGSVQPGGSLRLSCAASGSIFSSTAMAWYRQAPGKQRDLVAVISTVGITKYADSVKGRFTISRDNAKNTVYLQMNSLRPEDTALYYCTSDARRGWDTRYWGQGTLVTVSSGGGGSGGGSEVQLVESGGGVVQPGGSLRLSCAASGFTFRSFGMSWVRQAPGKGPEWVSSISGSGSDTLYADSVKGRFTISRDNSKNTLYLQMNSLRPEDTALYYCTIGGSLSRSSQGTLVTVSSA
notes: Trivalent ISVD construct (two anti-CX3CR1 ISVDs, one anti-albumin ISVD), C-terminal alanine included in the entry; also called 54A12_SO (E1D)-9GS-54A12_SO-9GS-ALB23002-A
